Article PMC5442324, “Zinc is a potent and specific inhibitor of IFN-λ3 signalling” (Nature Communications, 2017)

What was measured:
IFN-α (Roferon-A) = IFN-α (Roferon-A) (UniProt P01563); test: zinc IMAC resin binding and SDS-PAGE; 200 ng IFN-α or IFN-λ3 on IMAC-Select gel charged with ZnSO4, 4 °C, 50 mM NaH2PO4, 300 mM NaCl, pH 8.0; eluted with 100 mM EDTA; SDS-PAGE, SYPRO ruby; bands read as monomer and dimer
[1] = biological target: the molecule itself; test: as above

Molecule	stoichiometry N (IFN-α (Roferon-A))	stoichiometry N [1]
IFN-α (Roferon-A) (from UniProt P01563 24-188) (ligand)	2	–
recombinant human IFN-λ3 (ligand, UniProt Q8IZI9 22-196, looked up, IFN-λ3 (interferon lambda 3), human, recombinant, R&D Systems; (Cys169); also called interferon lambda 3; IFNL3; source: bought: R&D Systems) VPVARLRGALPDARGCHIAQFKSLSPQELQAFKRAKDALEESLLLKDCKCRSRLFPRTWDLRQLQVRERPVALEAELALTLKVLEATADTDPALGDVLDQPLHTLHHILSQLRACIQPQPTAGPRTRGRLHHWLHRLQEAPKKESPGCLEASVTFNLFRLLTRDLNCVASGDLCV	–	2
